Literature values as cited in paper PMC10875074.
pKd: −log10 of the molar value.

Target: CD155 (poliovirus receptor, Necl-5) (Homo sapiens) (UniProt P15151)

pKd: 8.70
Substance: TIGIT (from UniProt Q495A1)
